Source: article PMC3515540, “Identification of Regions Involved in Substrate Binding and Dimer Stabilization within the Central Domains of Yeast Hsp40 Sis1” (PLoS ONE, 2012)

B1: wild-type Sis1 (natural protein, yeast, UniProt P25294 1-352, looked up)
chain: MVKETKLYDLLGVSPSANEQELKKGYRKAALKYHPDKPTGDTEKFKEISEAFEILNDPQKREIYDQYGLEAARSGGPSFGPGGPGGAGGAGGFPGGAGGFSGGHAFSNEDAFNIFSQFFGGSSPFGGADDSGFSFSSYPSGGGAGMGGMPGGMGGMHGGMGGMPGGFRSASSSPTYPEEETVQVNLPVSLEDLFVGKKKSFKIGRKGPHGASEKTQIDIQLKPGWKAGTKITYKNQGDYNPQTGRRKTLQFVIQEKSHPNFKRDGDDLIYTLPLSFKESLLGFSKTIQTIDGRTLPLSRVQPVQPSQTSTYPGQGMPTPKNPSQRGNLIVKYKVDYPISLNDAQKRAIDENF
notes: Sis1, yeast cytosolic Type II DnaJ/Hsp40, full length wild type (residues to 352 by the SYS formula); no tag is stated; also called native Sis1; full length wild-type Sis1; source: E. coli BL21(DE3), purified by two chromatography steps
B2: Sis1_Δ_(124–174) (natural protein, yeast, UniProt P25294 1-352, looked up)
chain: MVKETKLYDLLGVSPSANEQELKKGYRKAALKYHPDKPTGDTEKFKEISEAFEILNDPQKREIYDQYGLEAARSGGPSFGPGGPGGAGGAGGFPGGAGGFSGGHAFSNEDAFNIFSQFFGGSSTYPEEETVQVNLPVSLEDLFVGKKKSFKIGRKGPHGASEKTQIDIQLKPGWKAGTKITYKNQGDYNPQTGRRKTLQFVIQEKSHPNFKRDGDDLIYTLPLSFKESLLGFSKTIQTIDGRTLPLSRVQPVQPSQTSTYPGQGMPTPKNPSQRGNLIVKYKVDYPISLNDAQKRAIDENF
notes: source: E. coli BL21(DE3), purified by two chromatography steps
B3: Sis1_Δ_(121–257) (natural protein, yeast, UniProt P25294 1-352, looked up)
chain: MVKETKLYDLLGVSPSANEQELKKGYRKAALKYHPDKPTGDTEKFKEISEAFEILNDPQKREIYDQYGLEAARSGGPSFGPGGPGGAGGAGGFPGGAGGFSGGHAFSNEDAFNIFSQFFGHPNFKRDGDDLIYTLPLSFKESLLGFSKTIQTIDGRTLPLSRVQPVQPSQTSTYPGQGMPTPKNPSQRGNLIVKYKVDYPISLNDAQKRAIDENF
notes: as for B2
B4: Hsp70 Ssa1 (natural protein)
chain: not shown
notes: Ssa1, yeast cytosolic Hsp70; also called yeast Hsp70; source: E. coli BL21(DE3), purified by two chromatography steps (said of all recombinant proteins, 'unless otherwise noted')
B5: SYS (Sis1_(1–121)-Ydj1_(101–255)-Sis1_(258–352)) (other, yeast, UniProt P25294 1-121, looked up)
chain: MVKETKLYDLLGVSPSANEQELKKGYRKAALKYHPDKPTGDTEKFKEISEAFEILNDPQKREIYDQYGLEAARSGGPSFGPGGPGGAGGAGGFPGGAGGFSGGHAFSNEDAFNIFSQFFGGAGGAQRPRGPQRGKDIKHEISASLEELYKGRTAKLALNKQILCKECEGRGGKKGAVKKCTSCNGQGIKFVTRQMGPMIQRFQTECDVCHGTGDIIDPKDRCKSCNGKKVENERKILEVHVEPGMKDGQRIVFKGEADQAPDVIPGDVVFIVSERPHPNFKRDGDDLIYTLPLSFKESLLGFSKTIQTIDGRTLPLSRVQPVQPSQTSTYPGQGMPTPKNPSQRGNLIVKYKVDYPISLNDAQKRAIDENF
notes: Ydj1, yeast, residues 101–255 (central region); Sis1, yeast, residues 258–352 (CTDII and dimerization region); also called chimera SYS; SYS chimera; source: E. coli BL21(DE3), purified by two chromatography steps

Tests used:
[1] = biological target: the molecule itself; experiment: SEC-MALLS; Superdex 200 10/300 GL, buffer A (25 mM Tris-HCl pH 7.5, 500 mM NaCl); 25 µM protein without urea, 50–75 µM with urea up to 1 M
[2] = biological target: B4; experiment: ELISA; Sis1, variants or Ydj1 (100 µL at 200 nM) coated on the microplate; Ssa1 (100 nM) in 50 mM phosphate pH 7.4, 150 mM NaCl, 5 mM Mg-ATP, 1 h, 25°C; bound Ssa1 detected with α-Ssa1; Sis1 set as 100%; details: both partners purified
[3] = biological target: B3; experiment: as above; details: both partners purified
[4] = biological target: B5; experiment: as above; details: both partners purified
[5] = biological target: T1, full-length Ydj1 (yeast, UniProt P25491 1-409); experiment: as above; details: both partners purified
T1 construct: Ydj1, yeast cytosolic Type I DnaJ/Hsp40, full length; also called wild-type Ydj1; source: E. coli BL21(DE3), purified by two chromatography steps
T1 sequence (looked up): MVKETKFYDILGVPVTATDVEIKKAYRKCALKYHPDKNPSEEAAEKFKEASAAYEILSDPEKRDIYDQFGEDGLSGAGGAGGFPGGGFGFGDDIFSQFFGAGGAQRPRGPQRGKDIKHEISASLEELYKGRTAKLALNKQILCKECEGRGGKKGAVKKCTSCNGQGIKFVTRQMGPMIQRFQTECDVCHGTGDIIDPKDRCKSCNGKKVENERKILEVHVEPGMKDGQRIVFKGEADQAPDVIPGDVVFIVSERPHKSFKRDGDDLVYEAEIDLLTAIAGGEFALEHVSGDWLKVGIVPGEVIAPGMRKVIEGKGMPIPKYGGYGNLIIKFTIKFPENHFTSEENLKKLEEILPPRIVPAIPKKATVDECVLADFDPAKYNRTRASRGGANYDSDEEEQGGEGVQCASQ

Row | Binder | stoichiometry N [1] | binding result [2] | percent of the binding ability of Sis1 [3] [%] | percent of the binding ability of Sis1 [4] [%] | percent of the binding ability of Sis1 [5] [%]
1 | B1 | 2 | binds |  |  | 
2 | B2 | 2 | binds |  |  | 
3 | B3 | 2 |  |  |  | 
4 | B4 |  |  | ~50 | ~50 | ~30
5 | B5 | 2 |  |  |  | 
